The text below walks through data of PMC9302720.

In this test the target is SARS-CoV-2 protein S ectodomain, Wuhan-Hu-1 variant (SARS-CoV-2 | not stated) (UniProt P0DTC2). As to the kind of experiment: BLI. On the technique in general: Biolayer interferometry detects binding as a change in optical thickness at a sensor tip.

Usually Kd stands for the concentration at which binding is half-saturated. By koff is commonly meant a measure of how fast the partners let go of each other. Low readings indicate slow dissociation, high ones fast dissociation. The kon is the rate constant with which the complex forms. Read a high kon as fast association. Substance “N-terminal peptidase domain of human ACE2 (domain or fragment)” had a dissociation constant (Kd) of 79.3 nM, a dissociation rate constant (koff) of 0.0162 s⁻¹ and a kon of 210000 M⁻¹ s⁻¹.
